The chains are these.
B1: Lys104Glu, Thr127Ala, Ala154Thr: AGT mutant having all mutations of AGTM and additionally those listed (protein, UniProt P16455 1-207, looked up, variant C62A K104E Q115S Q116H K125A R128A G131K G132T M134L R135S C150N S151I S152N A154T N157G S159E del183-207)
Methylated-DNA--protein-cystei …: MDKDCEMKRTTLDSPLGKLELSGCEQGLHEIKLLGKGTSAADAVEVPAPAAVLGGPEPLMQATAWLNAYFHQPEAIEEFPVPALHHPVFQQESFTRQVLWKLLEVVKFGEVISYSHLAALAGNPAAAAAVKTALSGNPVPILIPCHRVVNINGTVGGYEGGLAVKEWLLAHEGHRLGKPGLG
B2: Lys32lle, Leu33Phe, Gly182Val: AGT mutant having all mutations of AGTM and additionally those listed (protein, UniProt P16455 1-207, looked up, variant K32I L33F C62A Q115S Q116H K125A A127T R128A G131K G132T M134L R135S C150N S151I S152N N157G S159E G182V del183-207)
Methylated-DNA--protein-cystei …: B1 Methylated-DNA--protein-cystei … with K32I, L33F, E104K, A127T, T154A, G182V
B3: Lys8Thr, Thr127Ala, Ala154Thr, His174Arg: AGT mutant having all mutations of AGTM and additionally those listed (protein, UniProt P16455 1-207, looked up, variant K8T C62A Q115S Q116H K125A R128A G131K G132T M134L R135S C150N S151I S152N A154T N157G S159E H174R del183-207)
Methylated-DNA--protein-cystei …: B1 Methylated-DNA--protein-cystei … with K8T, E104K, H174R
B4: Lys32lle, Leu33Phe, Asn150Gly, lle151Gly, Asn152Asp, Ala154Asp: AGT mutant having all mutations of AGTM and additionally those listed (protein, UniProt P16455 1-207, looked up, variant K32I L33F C62A Q115S Q116H K125A A127T R128A G131K G132T M134L R135S C150G S151G S152D A154D N157G S159E del183-207)
Methylated-DNA--protein-cystei …: B1 Methylated-DNA--protein-cystei … with K32I, L33F, E104K, A127T, N150G, I151G, N152D, T154D
B5: Asn150Glu, lle151Ser, Asn152His, Ala154Lys: AGT mutant having all mutations of AGTM and additionally those listed (protein, UniProt P16455 1-207, looked up, variant C62A Q115S Q116H K125A A127T R128A G131K G132T M134L R135S C150E S152H A154K N157G S159E del183-207)
Methylated-DNA--protein-cystei …: B1 Methylated-DNA--protein-cystei … with E104K, A127T, N150E, I151S, N152H, T154K
B6: Ala154Thr: AGT mutant having all mutations of AGTM and additionally those listed (protein, UniProt P16455 1-207, looked up, variant C62A Q115S Q116H K125A A127T R128A G131K G132T M134L R135S C150N S151I S152N A154T N157G S159E del183-207)
Methylated-DNA--protein-cystei …: B1 Methylated-DNA--protein-cystei … with E104K, A127T
B7: Asn150Glu, lle151Gly, Asn152Glu, Ala154Arg: AGT mutant having all mutations of AGTM and additionally those listed (protein, UniProt P16455 1-207, looked up, variant C62A Q115S Q116H K125A A127T R128A G131K G132T M134L R135S C150E S151G S152E A154R N157G S159E del183-207)
Methylated-DNA--protein-cystei …: B1 Methylated-DNA--protein-cystei … with E104K, A127T, N150E, I151G, N152E, T154R

Where a chain is given by its changes, count along the chain named.

The first test is described as follows: BG-Cy3 activity assay (reaction rate of AGT mutants). Format: biochemical. The note with it: divided by value for wild type hAGT; periplasmic extracts (x.). The procedure: Reactivity against DNA-based substrates measured with a BG-Cy3 assay: BG-Cy3 is prepared by reacting the previously described O^6-(4-aminomethyl-benzyl)guanine (Keppler et al., NatureBiotechnol. 21:86-89, 2003) with the commercially available N-hydroxysuccinimide ester of Cy3, (Cy3-NHS, Amersham). The coupling reaction is performed at ambient temperature in N,N-dimethylformamide in the presence of 1 eq. of triethylamine. The BG-Cy3 conjugate is purified by reversed-phase HPLC on a C18-column by using linear gradients from 0.1% trifluoroacetic acid to acetonitrile. After solvent evaporation BG-Cy3 is dissolved in dimethyl sulfoxide and stored at −20° C. For measuring the reactivity with DNA-based substrates, a reaction mixture containing different concentrations (0 to 5 µM) of oligonucleotide SEQ ID NO:2 (modified in position 14), GST-AGT fusion protein at 0.2 µM and BG-Cy3 at […] in reaction buffer (50 mM HEPES, pH 7.2, 1 mM DTT, 200 mg/ml BSA) is incubated in microtiterplates. Fluorescence of the Cy3 derivative (excitation 519 nm, emission at 572 nm) is measured on a Spectramax Gemini plate reader (Molecular Devices).
The amplified products are cloned in fusion to the g3 gene of filamentous phage in the vector pAK100 via SfiI restriction sites. The resulting gene libraries are used for phage display as described under Example 4. The mutants of the libraries are selected with 5 to 50 nM of BG-Bt for 10 min. Selected mutants are subcloned into pGEX using the primers SEQ ID NO:3 and SEQ ID NO:13. The reaction rate of mutant AGTs is determined as described in Example 6, Reactivity against DNA-based substrates (BG-Cy3 assay).
For the activity assay purified GST fusion proteins were used for mutants marked with “p.” (prepared as described under Example 1); periplasmic extracts were used for mutants marked with “x.” (prepared as described under Example 2).
Consider B1, for which the Relative reaction rate was 12.34.
The same measure, in the same setting: as for B2, the figure is 9.48.
Regarding B3, the Relative reaction rate came to 15.66.

Staying with this test, now noted: divided by value for wild type hAGT; purified GST fusion proteins (p.).
In turn, B4 registered a Relative reaction rate of 45.45.
As for B5, the Relative reaction rate is given as 15.43.
Same read-out and setting: as for B6, the figure is 14.90.
Still for that read-out and setting: as for B7, the figure is 18.42.

(Values after patent US7888090B2, “Mutants of O6-alkylguanine-DNA alkyltransferase” (Ecole Polytechnique Federale de Lausanne, priority 2004, dated 2011).)
